According to publication PMC10144703, “Molecular Mechanism of Sirtuin 1 Inhibition by Human Immunodeficiency Virus 1 Tat Protein” (Life, 2023):

How the values were obtained:
[1] = system: mini-Sirt1-∆ESA (aa 183–505); test: Inhibition of mini-Sirt1-∆ESA (ac-p53 substrate); format: biochemical, human; conditions: dose-dependent, 100 µM ac-p53, n = 3; relative to mini-Sirt1
Text: (§1) A human mini-Sirt1 construct (aa 183-505-(GGGS)2-641-665), as described in [27], was generated in a modified pET-19b with a TEV cleavage site. This construct and human full-length Sirt1 (fl-Sirt1) in pET-15b, Sirt1-(183-664) and Sirt1-(214-664) in pET-15b, mini-Sirt1-∆SBD (aa 214-505-(GGGS)2-641-665) and mini-Sirt1-∆ESA (aa 183–505) in a modified pET-19b with TEV cleavage site, Sirt2-(43-356) in a modified pET-19b with a His6-Sumo tag, Sirt3-(93-399) in a modified pET-32a with Trx-His6 tag and TEV cleavage site, hSirt3-(118-399) in pVFT3S (Sungkyunkwan University, Seoul, Republic of Korea) with His6-Trx tag and TEV cleavage site, Sirt5-(34-302) in pET-151/D-TOPO, and Sirt6-(1-355) in pQE80L.1 were purified as described. […]
(§2) Continuous coupled enzymatic sirtuin activity assays were conducted as described. […] Reactions were monitored for 1 h at room temperature by absorption spectroscopy at 340 nm in a UV/vis plate reader (BioTek). The slope for the linear range (typically 5–25 min) was evaluated after background correction with measurements without NAD^+. Additional control reactions were run by either omitting enzyme or omitting peptide substrate to ensure that the signal measured reflects the NAD+-dependent deacetylation activity of the sirtuin.

[2] = target: T1, Sirt3-(93-399) (Homo sapiens, UniProt Q9NTG7); test: FdL assay, Sirt3; format: biochemical; conditions: increasing Tat-Cys^−, n = 3-6
T1 construct: Sirt3-(93-399) in a modified pET-32a; Trx-His6 (cleaved yes); made in house; host or cells: E. coli CodonPlus(DE3)
T1 sequence (Q9NTG7 93-399): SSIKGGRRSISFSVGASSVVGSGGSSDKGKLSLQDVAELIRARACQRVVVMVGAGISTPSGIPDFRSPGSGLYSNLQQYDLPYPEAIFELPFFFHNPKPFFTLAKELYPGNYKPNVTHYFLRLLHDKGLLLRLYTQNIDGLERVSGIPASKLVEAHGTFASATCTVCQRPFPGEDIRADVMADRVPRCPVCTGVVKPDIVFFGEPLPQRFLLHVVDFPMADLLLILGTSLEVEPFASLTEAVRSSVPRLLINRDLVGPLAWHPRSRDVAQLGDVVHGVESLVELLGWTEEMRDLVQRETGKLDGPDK
Text: A human mini-Sirt1 construct (aa 183-505-(GGGS)2-641-665), as described in [27], was generated in a modified pET-19b with a TEV cleavage site. This construct and human full-length Sirt1 (fl-Sirt1) in pET-15b, Sirt1-(183-664) and Sirt1-(214-664) in pET-15b, mini-Sirt1-∆SBD (aa 214-505-(GGGS)2-641-665) and mini-Sirt1-∆ESA (aa 183–505) in a modified pET-19b with TEV cleavage site, Sirt2-(43-356) in a modified pET-19b with a His6-Sumo tag, Sirt3-(93-399) in a modified pET-32a with Trx-His6 tag and TEV cleavage site, hSirt3-(118-399) in pVFT3S (Sungkyunkwan University, Seoul, Republic of Korea) with His6-Trx tag and TEV cleavage site, Sirt5-(34-302) in pET-151/D-TOPO, and Sirt6-(1-355) in pQE80L.1 were purified as described. Shortly, proteins were expressed at 20 °C (mini-Sirt1 constructs at 16 °C) in E. coli CodonPlus(DE3), cell lysates were cleared by centrifugation, and proteins were purified via affinity chromatography using a nickel NTA column. After digestion with thrombin or TEV protease, proteins were re-run over the nickel NTA column, pooled, and concentrated. The samples were, then, subjected either directly to size exclusion chromatography in 50 mM Tris/HCl, pH 8.0, 150 mM NaCl, 1 mM TCEP, or to an ion exchange chromatography followed by size exclusion chromatography. […]

[3] = target: T2, human Sirt2 (Homo sapiens, UniProt Q8IXJ6); test: Continuous coupled enzymatic assay, Sirt2; format: biochemical; conditions: 65 μM Tat-Cys^−, acetylated peptide at substrate Km, n = 3
T2 construct: Sirt2-(43-356) in a modified pET-19b; His6-Sumo; made in house; host or cells: E. coli CodonPlus(DE3)
T2 sequence (Q8IXJ6 43-356): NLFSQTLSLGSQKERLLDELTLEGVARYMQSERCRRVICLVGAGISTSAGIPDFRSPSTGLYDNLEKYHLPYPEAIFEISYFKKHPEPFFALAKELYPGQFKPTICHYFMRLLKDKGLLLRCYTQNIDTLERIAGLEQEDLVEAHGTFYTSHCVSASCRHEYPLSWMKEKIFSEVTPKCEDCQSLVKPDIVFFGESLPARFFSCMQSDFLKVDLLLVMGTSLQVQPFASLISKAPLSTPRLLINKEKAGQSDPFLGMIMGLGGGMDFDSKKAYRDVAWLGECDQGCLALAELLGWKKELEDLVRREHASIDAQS
Text: as §1, §2

B1: Tat-Cys^−: Recombinant 86-residue HIV1 Zaire 2 Tat with C22S, C25A, C27A, C30S, C31A, C34S, and C37A (protein)
chain: MDPVDPNIEPWNHPGSQPKTASNRAHAKKSAYHSQVAFITKGLGISYGRKKRRQRRRPSQGGQTHQDPIPKQPSSQPRGDPTGPKE
Which “inhibitory effects, mini-Sirt1-∆ESA” value [1] does the source give for B1 here?
The value was “unchanged inhibitory effects”.

And the “inhibition mode vs acetylated substrate peptide, Sirt3” value ([2]; FdL-1, Sirt3-(93-399))?
The value was “competitive with the acetylated substrate peptide”.

What about the “inhibition mode vs NAD^+, Sirt3” value ([2]; NAD^+ titration, Sirt3-(93-399)) of the same molecule?
Its value is “non-competitive with NAD^+”.

What about the “inhibitory effect on Sirt2, continuous assay” value [3] of the same molecule?
The value was “pronounced inhibitory effects”.
